In the DeepSol protein solubility set:

Assay: soluble on expression in E. coli; label from the status in PepcDB or PDB records

Sequence	soluble on expression in E. coli
MTKSETTLSKLLVESELVQECEELLSSLPRDRSVFAEYLYQYQGFWYPPNLLEGVLYSQKHFQARDSDIVLASIPKSGTTWLKSLVFALIHRQEFQTPLVSHPLLDNNPHTLVTFIEGFHLHTQDTSPRIFSTHIPVGSLPESVKDSSCKVVYCCRNPKDAFVSLWHFMKNLIVKEMVGCTMEEMVRFFCRGSSIYGPFWDHVLQYWKESRENPKKVMFVMYEEMREQPQEWVMRIAEFLGYSFTEEEIENGVLEDIIKLCSLENLSKLEVNEKGKLLNGMETKAFFRKGEIGGWRDTLTPLLAEEIDKTTKEKLIGSDFRFFC	soluble
SALKAEGAALDCFEVTLKCEEGEDEEEAMVVAVIPRPEPMLRVTQQEKTPPPRPSPLEAGSDGCEEPKQQVSWEQEFLVGSSPGGSGRALCMVCGAEIRAPSADTARSHILEQHPHTLDLSPSEKSNILEAWSEGVALLQDVRAEQPSPPNSDSGQDAHPDPDANPDAARMPAEIVVLLDSEDNPSLPKRSRPRGLRPLELPAVPATEPGNKKPRGQRWKEPPGEEPVRKKRGRPMTKNLDPDPEPPSPDSPTETFAAPAEVRHFTDGSFPAGFVLQLFSHTQLRGPDSKDSPKDREVAEGGLPRAESPSPAPPPGLRGTLDLQVIRVRMEEPPAVSLLQDWSRHPQGTKRVGAGDTSDWPTVLSESSTTVAGKPEKGNGV	soluble
MPDHLGDDMRKTKKDDTKEEEKNFQALDEGDIAVLKRYGQGPYAEQLKTLDADIENCLKKVNELSGVKESDTGLAPPALWDIAADKQAMQQEQPLQVARCTKIITSDKHDPRYLINVKQFAKFVVDLADSVAPTDIEEGMRVGVDRNKYQIHLPLPAKIDPTVTMMQVEEKPDVTYSDVGGCKDQIEKLREVVETPLLHPERYVNLGIEPPKGVLLYGPPGTGKTLCARAVANRTDACFIRVIGSELVQKYVGEGARMVRELFEMARTKKACLIFFDEIDAVGGARFDDGQGGDNEVQRTMLELINQLDGFDPRGNIKVLMATNRPDTLDPALMRPGRLDRKVEFALPDLAGRAHILKIHAKQMSVERDIRYDLLARLCPNSTGAEIRSVCTEAGMFAIRARRKVATEKDFLEAINKVVKGYAKFSATPRYLTHN	not soluble
MSRAVRPYLVLATQRSGSTLLVESLRATGCAGEPQEFFQYLPSTGMAPQPREWFAGVDDDTILQLLDPLDPGTPDTATPVAWREHVRTSGRTPNGVWGGKLMWNQTALLQQRAAQLPDRSGDGLRAAIRDVIGNEPVFVHVHRPDVVSQAVSFWRAVQTQVWRGHPDPKRDSQAVYHAGAIAHIIRNLRDQENGWRAWFAEEGIDPIDIAYPVLWRNLTAIVASVLDAIGQDPKLAPAPMLERQANQRSDEWVDRYRAEAPRLGLPT	soluble
EVVVTGMQKMDKRLFTGAATKLDAEGVKLNGMADISRGLEGRAAGVSVQNVSGTFGTAPKIRVRGATSIYGSSKPLWVVDGVIMEDAVEVSADQLSSGDAETLISSAIAGLNADDIESFQILKDGSATSIYGARAMAGVIVVTTKKGK	not soluble
MGSDKIHHHHHHMNFEIPQSLIHPLLALIQAESPLARQLREHGVCHGNMVVSARLFDAQSLSSLYTLSKAQNERELLFQMLALDNIYNAPQARTIPGLEMLVAGLIAYLSRDAIDGWLYQRSRDGVLLPWLVQRIRHVEPEQGMPYVAIDMLANTMLSANSEQTDPTRRRSGMTTSIIVTRDEIVDRTIPELLAEFGFFKECAEFRREYEIHAQRFVRYQRSFGAQFIATRAGFTVEGKNTVALARIADGVTARCINDEERLERRFEMNCDAEFWRRAGVVSGFEKVPLHGYVHLFHLEWHQNIWVHVQHLSEYKYRPELRDKLVLPDHHRDLIDILTSHMDVLVQDFVPGKSGGTTILCQGAPGLGKTLTAEIYAEVVGKPLYRVHSGQLGTTAASVGATLMEILRRAMRWNAVLLLDEADVYIRRRDNDLEHNAIVAEFLRTLEYFSGLLFMTTNRTGDVDDAILSRCIATIQYETPCREDAARLWRLQADQCGVSLQDELVDALTAAYPKASGRDIKELMKLATRYSEAKQIALSEDVFRLCAQFRAIE	not soluble
MSLKTTTSSTPSDRITWVRISSCYLPLATPISDAKVLTGRQKPMTEIAILFAEIETAGGHQGLGFSYSKRAGGPGQFAHAREIAPALIGEDPSDIAKLWDKLCWAGASAGRSGLSTQAIGAFDVALWDLKAKRAGLSLAKLLGSYRDSVRCYNTSGGFLHTPIDQLMVNASASIERGIGGIKLKVGQPDGALDIARVTAVRKHLGDAVPLMVDANQQWDRPTAQRMCRIFEPFNLVWIEEPLDAYDHEGHAALALQFDTPIATGEMLTSAAEHGDLIRHRAADYLMPDAPRVGGITPFLKIASLAEHAGLMLAPHFAMELHVHLAAAYPREPWVEHFEWLEPLFNERIEIRDGRMLVPTRPGLGLTLSGQVKAWTREEAQVGTRPEGHHHHHH	soluble
MSLVRDIKTFKFFEVLLIYEMLEVLKALAMMNATRKVVKISSKELAEHIGQSLQTAARKLKELEDEGLIDRTLTKDGQFVVITEKGKQLLYKEYMDYKKIFDDEGTIKIKGEVFSGVGEGRYYVSLEGYRKQFREKLGFDPYPGTLNLRIPKEEMYFRRRLDEERGILIEGFSTEDRTFGEVKAFKCRINGIEGAIVIPKRTHYPAEILEVISPVKLRDKLGLKDGDFVEVEVILEGHHHHHH	soluble
MKIHKTLTPWAAALLLASTAWPALAEVSTVRLAKQFGIGYLPLTLVEELDLLEKHAAASGHEITTEWLRFTGGSGMNEALLSGNLDLAAGGTGPLFTIWARTRENLKIKGVAALASMPLHLMTSNPEVKSLADFSQGDKIALPAVKTSIQAVTLQMASKQAFGPDKATAMDAFTVSMGHPDAQLALTGGQSEVTAHFGSPPFQNLEAKVEGIHKVLDSYDVLGGSHTFTVVWAADKFISENPEITKAFMAALEESMELISTNPEKAAEIWMAAERSPLSREEVVALIRDEQTVWTTTPERTLPYVEFLSESGLIKTSAEDWSEIFFDTMSGKEGS	not soluble
MKYIINHSNDTAFNIALEEYAFKHLLDEDQIFLLWINKPSIIVGRHQNTIEEINRDYVRENGIEVVRRISGGGAVYHDLNNLNYTIISKEDENKAFDFKSFSTPVINTLAQLGVKAEFTGRNDLEIDGKKFCGNAQAYINGRIMHHGCLLFDVDLSVLANALKVSKDKFESKGVKSVRARVTNIINELPKKITVEKFRDLLLEYMKKEYPEMTEYVFSEEELAEINRIKDTKFGTWDWNYGKSPEFNVRRGIKFTSGKVEVFANVTESKIQDIKIYGDFFGIEDVAAVEDVLRGVKYEREDVLKALKTIDITRYFAGISREEIAEAVVG	not soluble
MGSDKIHHHHHHMRMDHQLAERWIAPYSHVLDLGCGNGELLAHLQQNRGVTGYGLEIDEDKINEAIANGLSIVEQDLNDGLARFADNSFDTVVMARALQAVKSPDVLLLDMLRVAREAVITFPNFAHWQNRIHLGLKGIMPVSEALPYEWYNTPNIHLCTFKDFEKLCAQHDIHIINRFAVSDSEKGHSSLMTALIRRAPNLLADVAIYRVSKQKPE	not soluble
AHHHHHHGSSIKIELFGITFENPLILASGVVDMTPELLRRAHKEGAGGVVTKSIGIEPRKGYDNPTVVEVPCGLINAMGLPNPGWKAFLEEFEKESFDFPVIVSIFGGNPEEFAFLAEKLERVGDAFELNLSCPHAKGYGLEIGQDPENVYRVVKAVKDVTDKPVIAKLTPNTSDITKLGLAAEKAEADGVSAINTLKAIAIDIYAKRPILSNKFGGYSGPGIKPIALRAVYDLASKLDIPIIGIGGITTWQDAVEFLLAGASAVQIGTAVYLKGFSVFREIAEGIRKYLEEEGFSSVKEIIGLAQKV	soluble
SNRLGIPALSGDTLSLLNTPSEILNAIISDIEKAEHEINMEFYIWHHGGLADSVASALIVAAKRGVTVNVLLDSAGSMDFFKSHWPKLLKQSGVNIVEALSVSPFRMFFRRLDLRLHRKIVVIDNRIAYTGSMNLVDPQYFKQNSGVGQWIDVMVRLTGPNVAILNTIHAWDWEVETGIRELPHLPECPASIDPFNHTTQVVPSGPGMPDDIIQQV	not soluble
MGSDKIHHHHHHMQDVTGRALVMMESATQGQQGIAMDLVQEAFIALHKSYADRSTEEWYPLFYTILNNKLQDWRRKEARRANPFSFFKKVSLDNDDEEIIDIVDEKAINPADFLDQAVTIEEIQEAIAKLPVRQQQAFMLRAWEGFDTHTTAQIMNCTEGSVKTHYHRAIQGLREYLAHLNPMGGSNES	not soluble
MGSDKIHHHHHHMIPEKRIIRRIQSGGCAIHCQDCSISQLCIPFTLNEHELDQLDNIIERKKPIQKGQTLFKAGDELKSLYAIRSGTIKSYTITEQGDEQITGFHLAGDLVGFDAIGSGHHPSFAQALETSMVCEIPFETLDDLSGKMPNLRQQMMRLMSGEIKGDQDMILLLSKKNAEERLAAFIYNLSRRFAQRGFSPREFRLTMTRGDIGNYLGLTVETISRLLGRFQKSGMLAVKGKYITIENNDALAQLAGHTRNVA	not soluble
MLGHNKISVIIPAYNEERRIGNVLKGIPDFVDEVIVVDDGSSDGTSKVAMELGATVIRLNKNSGKGAAMREGLKISTGDIIVFMDADGQHNPKEIYRLVKPIVEGRADLVIGRRIITRGKRPMSRKISNFITTRLITLKTRKKILDTQSGFRAIRREFVPVIESDRYEVETEVLIKAIKKGARILEVPISTRYDVETGHFKMIDIFRFLFALIKYLEHHHHHH	not soluble
MGSDKIHHHHHHMASPEYEEYPSADGVMDDATLKDAEIRDWNWAVLPKGSVSTRFAAPSGSLAMVAMGKPQNPRVVLVPGATGSKEDFAVMMPELAEAGFYVLSYDLAGQYESAGAGPENLVPPRRHYDYELFVNDFVAVLESGGVPAHVVGYSFAAIVAQIAYSKRPELFRSFTLLSCPPLTGQCFRGISRFGRFTGLANGRVGAALMIWGIRRNVNKVSPNRLRFVRNRFRFTRRQSVRDIYGLMKNVPDLREHLAAATVPKFVAVGEHDLWPLHLHRQFAQSIGARISVYRGGHSPSETSPHQFGRDLLAMYAEGG	not soluble
MGSDKIHHHHHHMIGDMNELLLKSVEVLPPLPDTVSKLRKYVSEANSNIETMKVAEIISSDPLMTAKLLQLANSPYYGFTREITTINQVITLLGVGNIINIVMADSIRDNFKIDVSPYGLNTQNFLKTCNEEATFIANWLNDEDKKLSHLLVPCAMLLRLGIVIFSNFLIQNHKDKDFLAFLNKNENLALAENEFLGVDHISFLGFLLHRWNFDDVLIESICFVRTPHAAREKVKKSAYALAITDHLFAPHDGSSPFNAKAAVALLKEAKTQGINFDLNNLLSKLPNKAKENLNKED	soluble
MAGSPTCLTLIYILWQLTGSAASGPVKELVGSVGGAVTFPLKSKVKQVDSIVWTFNTTPLVTIQPEGGTIIVTQNRNRERVDFPDGGYSLKLSKLKKNDSGIYYVGIYSSSLQQPSTQEYVLHVYEHLSKPKVTMGLQSNKNGTCVTNLTCCMEHGEEDVIYTWKALGQAANESHNGSILPISWRWGESDMTFICVARNPVSRNFSSPILARKLCEGAADDPDGSGLNDIFEAQKIEWHHHHHHHH	soluble
MSLNKLAFLFPLLLAPGVAHAEPPQGVEFLHWWTSDGEQQALQTLKAQLKRHDIELLQSPVLGGGGDSAMTVLQARALAGNPPSFAQIEGPSIKAWDAIGILHNVNAVADEQRWDEVLYPLSIEINKTQNGYIALPLTLHRLNWLWVNHKLLKQLNLSAPKNWQEMFAAMELAEQNGIVPIAVGEQPWQVAQLFENLVISTGGVEFYTNAMVKLERDSIDSETLRQALTQFRRLSLLIDNQLPDSKWDTATQALADGQALFQIGGDWILGELLANQVSVPQEVGCYPTPDSDGVFLYNMDSLVFMSSKSFSSEAAQQTASALADVEFQAKFNKVKGSIPVRTDIDISDFNPCQVQSYQDFHYGVKHNLAVPSMIDSMAVNPVAQQAINSEIFRFYRNPKMEPDELIKRIIAISQSGEGHHHHHH	soluble
